According to patent publication US12692310B2, “ASIC1 channel antagonist antibody” (ShanghaiTech University, priority 2019, dated 2026):

How the values were obtained:
hASIC1a [1] = molecular target: T1, hASIC1a (Homo sapiens, UniProt P78348); experiment: Whole-cell patch clamp, acid-induced hASIC1a currents in stable CHO-K1 cells; format: cell-based
T1 construct: expressed in transfected cells
T1 sequence (P78348 1-528): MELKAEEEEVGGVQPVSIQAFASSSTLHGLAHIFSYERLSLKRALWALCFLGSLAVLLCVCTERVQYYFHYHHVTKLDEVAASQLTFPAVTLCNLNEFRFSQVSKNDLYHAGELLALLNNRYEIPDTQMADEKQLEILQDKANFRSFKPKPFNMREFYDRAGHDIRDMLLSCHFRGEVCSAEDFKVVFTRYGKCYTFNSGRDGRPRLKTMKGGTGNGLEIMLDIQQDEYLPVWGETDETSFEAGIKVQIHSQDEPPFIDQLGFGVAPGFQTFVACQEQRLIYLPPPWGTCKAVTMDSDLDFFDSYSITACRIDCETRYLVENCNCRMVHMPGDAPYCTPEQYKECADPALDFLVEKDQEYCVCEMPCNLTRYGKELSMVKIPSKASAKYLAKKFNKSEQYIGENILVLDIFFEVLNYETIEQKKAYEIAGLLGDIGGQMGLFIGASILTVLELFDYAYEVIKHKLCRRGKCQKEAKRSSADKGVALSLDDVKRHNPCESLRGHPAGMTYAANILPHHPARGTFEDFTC
Procedure: Electrophysiological Experiments. The inward cellular ASIC1a current was recorded from a single cell using standard whole-cell recording techniques by a patch-clamp amplifier (Axon 200B; Axon Instruments). Membrane currents were sampled and analyzed using a Digidata 1320A interface and a personal computer with Clampex and Clampfit software (Version 9.0.1; Axon Instruments). For a typical experiment, the extracellular fluid (ECF) used contained 150 mM NaCl, 5 mM KCl, 10 mM HEPES, 10 mM D-glucose, 2 mM CaCl2, and 1.0 mM MgCl2, with the osmotic pressure in the range of 320-335 mOsm, and pH 7.4 adjusted with 5 M NaOH. Patch electrodes (4-6 MΩ) contained 30 mM NaCl, 120 mM KCl, 0.5 mM CaCl2, 1 mM MgCl2, 10 mM HEPES, 2 mM MgATP, and 5 mM EGTA (pH 7.2 adjusted with 5 M KOH) at 300 mOsm. The ASIC1a activating ECF is identical to the normal ECF, except that MES was used to replace HEPES to maintain the ECF at pH 6.0. A coverslip with discretely distributed individual CHO-ASIC1a stable cells (6H7) on the surface was placed into a recording chamber under a constant perfusion (~2-3 mL/min) generated by an ALA 8 channel perfusion system (ALA Scientific Instruments Inc.) mounted on an inverted microscope. After achieving the break-in (whole-cell) configuration, the cell was voltage clamped at a holding potential of −70 mV. The normal ECF (pH 7.4) was first perfused onto the patched cell, and then, the activating ECF of pH 6.0 was rapidly applied to elicit a maximum inward ASIC1a current as control current. When testing the inhibition effect of the antibody, ECFs of pH 7.4 containing different concentrations of ASC06-IgG1 were perfused from low to high concentration into the recording chamber for 10-15 min. To measure the inhibition of the current, the activating ECFs of pH 6.0 containing the corresponding concentrations of the testing antibodies were applied to the same patched 6H7 cell to generate the inward currents that can be normalized to the control current of the same cell. […] Data acquired from four to five cells were used for statistical calculation of inhibition effects.
The function of ASC06-IgG1 was characterized using electrophysiology approach. The effect of ASC06-IgG1 antibody on the acid-induced, hASIC1a-mediated electrical current in cells was analyzed. PcTx1 was used as a positive control. […] The amplitudes of the hASIC1a-mediated inward currents of the stable cells were recorded and quantitated in the absence and presence of ASC06-IgG1, with venom peptide PcTx1 (100 nM) used as positive control. […] Unlike the sustained inhibition with the antibody after washing, the inhibition with PcTx1 could be readily washed out within 5 minutes (FIG. 5C).

hASIC1a [2] = molecular target: T1, hASIC1a; experiment: Steady-state desensitization (SSD) and pH activation of hASIC1a, patch clamp; format: cell-based
Procedure: For the measurement of steady-state desensitization (SSD), the pH of the conditioning ECF was adjusted to 7.6, 7.4, 7.2, 7.0, and 6.8 (in a HEPES buffer), while the activating ECF was maintained at pH 6.0 (in an MES buffer). For the measurement of pH activation of the hASIC1a in the 6H7 stable cells, the conditioning ECF was fixed at pH 7.6 (in a HEPES buffer), and the pH of the activating ECF was adjusted to 7.4, 7.2, 7.0, 6.8, 6.5, 6.3, and 6.0. The hASIC1a currents were recorded when the stable cell line 6H7 was patched in the presence and absence of 300 nM ASC06-IgG1. The relative currents expressed as fractions of the maximum amplitude on the sensorgram (I/Imax) were calculated and plotted to constitute SSD and pH activation profiles. Each data point represents the average of at least five patched cells.
To understand the mechanism by which ASC06-IgG1 blocked the hASIC1a currents, SSD and pH activation of hASIC1a in the absence and presence of ASC06-IgG1 were examined. The pH50 (a drop in extracellular pH, which can open 50% of the ASIC1a channel) values of the SSD curve and the pH activation curve for hASIC1a were measured and compared with or without 300 nM ASC06-IgG1. As shown in FIGS. 11A-11B, the SSD was induced when applying the conditioning extracellular fluids (ECFs) with different pH values and the activating ECF at pH 6.0, whereas the pH activation curve was constructed when applying the activating ECFs with varying pH values and the conditioning ECF at pH 7.6.

B1: ASC06-IgG1: ASC06 antibody converted into a full length IgG1 form (antibody, V domains shown)
VH: QVQLQQSGGGLVQPGGSLRLSCAASGFTFSSYAMSWVRQAPGKGLEWVSAISGSGGSTYYADSVKGRFTISRDNSKNTLYLQMNSLRAEDTAVYYCAKDSFYGYSKGDWGQGTLVTVSS
VL: QSALTQPASVSGSPGQSITISCTGTSSDVGAYNYVSWYQQQPGKAPKLMIYGVSNRPSGVSNRFSGSKSGNAASLTISGLQAEDEADYYCSSYTSSSTYVFGTGTKLTVLG
B1 was tested, and the “duration of sustained inhibition during washout” value (hASIC1a [1]; after washing) was 30 min, the “maximal inhibition of the acid (pH 6.0)-induced currents” value (hASIC1a [1]; dose-dependent) was “up to 80%” and the “mechanism of block relative to proton concentration” value (hASIC1a [2]) was “noncompetitive with the proton concentration”. For the same molecule, the “change of pH50 value of SSD” value (hASIC1a [2]; 300 nM, activating ECF pH 6.0) was “No significant differences”, the “change of pH50 value of pH activation” value (hASIC1a [2]; 300 nM, conditioning ECF pH 7.6) was “No significant differences” and the “interference with SSD and activation of ASIC1a” value (hASIC1a [2]; 300 nM, representative traces) was “interferes with neither SSD nor activation”.
